B1: TRIM43 (parent)
chain: RAQMIRNEYRKLHPVLHKEEKQHL
B2: EHMT1 (parent)
chain: EEINKNISDFGRQQLLPPFPSLHQ

Variants of: B1
Test: protein stability index of a GFP-peptide fusion (GPS, HEK-293T) (PSI 1-6); higher = more stable
Details: c terminus: a fixed tail appended
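Further: lentivirally expressed fusions sorted by FACS into six bins by GFP to DsRed ratio, PSI derived from sequencing read proportions per bin multiplied by bin number.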

Protein stability index of substitutions, site by site:
N7: A 2.39, L 3.49, S 2.83, R 3.15, T 3.3, F 2.44, E 2.32, P 4.17, H 3.28, C 3, M 2.98, W 1.96
K21: H 3.15, Q 4.17, M 2.54, A 2.91, L 2.4, I 2.59, D 3.82, W 2.51, T 2.92
Q3: R 2.81, T 3.27, H 3.13, L 2.41, M 2.82, D 3.64, S 3.22
L24: W 2.88, C 3.65, I 3.19, H 3.61, V 3.67, D 4.51, R 3.06, P 3.5, M 3.45, N 4.01, S 3.82
H23: C 3.51, P 3.09, S 3.45, Q 3.35, W 2.61, G 3.63, I 2.46, A 3.08, F 2.58, D 4.45, Y 2.74
Y9: I 3.03, K 3.65, R 3.84, L 3.25, T 4.08, N 3.79
A2: I 2.14, M 2.91, E 4.26, G 3.61, C 3.35, R 3.76, F 1.95, T 3.17, P 3.84
L16: C 2.71, K 3.85, P 3.92, V 4.07, G 3.1, E 4.04, F 3.04, T 3.57, Y 2.52, N 3.95, A 3.52, Q 3.85
K18: S 3.54, G 3.37, M 2.6, T 3.06, L 2.95, E 4.06, Q 3.49, F 2.4, R 2.55, D 3.45, N 3.2, I 2.6, V 3.26
V15: G 3.88, I 3.09, N 3.65, T 3.13, A 3.39, C 3, W 2.5, H 2.98, M 3.67, Y 2.7, K 3.29, L 2.63, P 3.32
E20: M 2.29, A 2.32, L 1.83, N 2.32, Q 2.76, D 3.38, P 2.09, V 1.97, T 2.83, R 1.83, F 1.91, K 2.95, Y 1.83
P14: L 3.51, D 3.33, M 2.5, C 2.42, R 3.23, T 2.77, W 2.51, K 2.7, H 2.28, Q 2.51, G 3.11
M4: L 3.2, Q 2.8, H 3.46, K 3.2, F 2.61, V 3.39, T 3.69, Y 2.74, D 3.53
R6: Y 2.57, D 4.3, H 3.54, I 1.89, N 4.15, W 1.77, Q 3.63, P 3.57, S 3.52, K 3.39, A 3.07
K11: Q 3.51, Y 3.07, L 3.49, I 2.94, P 4.16, T 3.42, N 3.68, W 3.14, D 4.29, E 4.15, C 2.79
H17: E 4.14, I 2.8, D 3.5, C 2.58, T 3.2, N 3.28, F 2.53, V 3.74, K 4.15, P 3.42, R 3.79, A 2.37, Q 3.07, G 3.56
I5: A 4.03, S 3.67, W 2.87, C 2.02, L 3.92, D 4.2, N 4.04, Y 2.92
R1: C 2.17, W 1.92, F 1.92, I 2.01, G 3.55, K 2.93, Q 3.04, M 2.47, D 3.89, Y 1.77, H 3.47
E8: Q 2.75, M 2.2, P 2.72, H 2.78, D 3.21, F 2.91, L 1.75, I 2.39, Y 2.51, N 3, C 2.59
R10: G 3.26, L 3.38, P 3.76, S 3.71, K 2.91, C 3.19, N 3.66, Y 3.31, A 3.08
L12: S 4.43, E 4.06, W 2.96, R 3.94, G 4.18, N 4.16, C 3.03
Q22: C 2.54, K 2.99, W 2, T 2.58, L 2.33, N 3.07, V 2.64, P 3.47, A 2.89, F 1.86, I 2.54, Y 2.71, M 2.3
H13: D 3.75, I 2.92, M 2.94, T 3.1, C 3, G 3.2, P 3.19, R 2.69, Y 2.83, V 3.11, F 2.82
E19: R 2.93, S 2.92, H 2.34, D 3.02, F 1.98, P 4.02, Q 3.22, W 2.18, N 2.42, I 1.73, V 2.25, Y 1.97

Variants of: B2
Test: as above
Details: c terminus: a fixed tail appended

Protein stability index: each site, then its substitutions
S21: A 2.36, Q 3.33, I 2.62, R 3.21, H 3.58, F 2.59, G 2.7, L 2.9, Y 2.54, K 3.68, N 2.73, V 2.82, C 3.06, D 3.9, W 1.98, E 3.59, M 2.01, T 3, P 3.54
P20: W 1.82, T 3.01, Y 2.59, V 3.02
L22: R 3.62, D 4.7, M 3.1, C 3.82, E 4.75, P 3.91, I 3.18, V 3.21, K 4.33, A 3.73, H 3.42, N 4.04, F 2.79, T 3.85, W 2.57, Y 2.47, S 4.33, G 3.81, Q 3.65
Q24: T 2.34, M 2.77, L 3.78, A 2.42, R 2.96, S 2.5, F 2.81, H 2.43, G 2.53, N 2.9, V 2.65, E 4.23, K 3.55, I 2.17, C 1.91, Y 2.49, D 4.02, W 3.45, P 3.43
H23: W 2.6, T 3.39, A 3.4, G 3.14, M 2.48, V 2.97, E 3.59, Q 3.02, C 2.66, P 3.17, I 2.93, R 3.08, F 2.38, D 3.85, K 3.61, N 3.07, Y 2.14, L 2.53, S 2.86

Reference: the supplement of paper PMC10567573
